Holding throughout (assay): biochemical
What all share (assay type): biochemical

The target in test [1] is T1, 266 human kinases (Homo sapiens, UniProt Q9UL54).
T1 sequence (Q9UL54 1-1235): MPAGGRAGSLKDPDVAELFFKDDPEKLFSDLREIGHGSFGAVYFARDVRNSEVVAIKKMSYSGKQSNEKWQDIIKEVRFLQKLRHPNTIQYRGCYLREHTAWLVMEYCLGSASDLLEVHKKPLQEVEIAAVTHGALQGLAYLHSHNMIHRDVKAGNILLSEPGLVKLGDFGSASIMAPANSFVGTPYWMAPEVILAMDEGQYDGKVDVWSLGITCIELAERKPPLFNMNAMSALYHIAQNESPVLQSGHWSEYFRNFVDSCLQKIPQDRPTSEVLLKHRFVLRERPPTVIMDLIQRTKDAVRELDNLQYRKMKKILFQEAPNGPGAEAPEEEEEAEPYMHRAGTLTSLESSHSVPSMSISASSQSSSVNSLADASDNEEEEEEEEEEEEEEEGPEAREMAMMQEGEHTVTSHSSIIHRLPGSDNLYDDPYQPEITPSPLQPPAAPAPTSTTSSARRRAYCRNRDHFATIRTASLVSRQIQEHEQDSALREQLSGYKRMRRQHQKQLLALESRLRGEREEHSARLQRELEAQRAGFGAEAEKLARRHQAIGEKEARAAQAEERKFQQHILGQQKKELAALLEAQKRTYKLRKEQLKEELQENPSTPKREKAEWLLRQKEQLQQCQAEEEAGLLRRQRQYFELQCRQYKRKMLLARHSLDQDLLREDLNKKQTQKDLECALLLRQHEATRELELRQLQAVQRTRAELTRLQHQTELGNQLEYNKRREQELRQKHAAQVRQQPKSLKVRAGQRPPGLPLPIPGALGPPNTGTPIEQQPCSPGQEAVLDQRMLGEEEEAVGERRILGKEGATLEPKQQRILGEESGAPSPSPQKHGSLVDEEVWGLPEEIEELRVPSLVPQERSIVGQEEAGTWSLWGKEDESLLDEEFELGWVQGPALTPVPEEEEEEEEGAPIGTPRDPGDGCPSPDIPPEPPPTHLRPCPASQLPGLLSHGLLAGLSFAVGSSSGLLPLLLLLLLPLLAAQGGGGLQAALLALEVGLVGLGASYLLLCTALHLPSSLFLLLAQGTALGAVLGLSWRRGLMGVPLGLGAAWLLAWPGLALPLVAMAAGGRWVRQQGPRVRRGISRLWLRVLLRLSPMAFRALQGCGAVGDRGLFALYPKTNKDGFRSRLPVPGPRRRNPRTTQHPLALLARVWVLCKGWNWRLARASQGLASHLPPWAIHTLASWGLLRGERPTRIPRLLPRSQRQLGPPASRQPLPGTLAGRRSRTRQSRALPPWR
The conditions noted are these: TAO2(h); 100 μM. The gist of the method:
(§1)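 Radiometric filter-binding format: a positively charged substrate takes up radiolabelled phosphate from ATP unless the kinase is inhibited, then is captured on a negatively charged filter membrane. Counts from scintillation are expressed relative to a 100% activity control.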

The target in test [2] is 266 human kinases (Homo sapiens, UniProt Q15375). Particulars: EphA7(h); 100 μM. The gist of the method: as §1
Test [3] addresses 266 human kinases (Homo sapiens, UniProt P05129). Particulars: PKCγ(h); 100 μM. In a few lines: as §1
Test [4] deals with 266 human kinases (Homo sapiens, UniProt O96017, I157T). Particulars: CHK2(I157T)(h); 100 μM. In a few lines:
as §1

In test [5] the target is 266 human kinases (Homo sapiens, UniProt O96013). Particulars: PAK4(h); 100 μM. In a few lines:
as §1

Test [6] has as its target 266 human kinases (Homo sapiens, UniProt P49841). The conditions noted are these: 6SK3β(h); 100 μM. In a few lines:
as §1

Test [7] addresses T2, 266 human kinases (Homo sapiens, UniProt Q06418).
T2 sequence (Q06418 41-890): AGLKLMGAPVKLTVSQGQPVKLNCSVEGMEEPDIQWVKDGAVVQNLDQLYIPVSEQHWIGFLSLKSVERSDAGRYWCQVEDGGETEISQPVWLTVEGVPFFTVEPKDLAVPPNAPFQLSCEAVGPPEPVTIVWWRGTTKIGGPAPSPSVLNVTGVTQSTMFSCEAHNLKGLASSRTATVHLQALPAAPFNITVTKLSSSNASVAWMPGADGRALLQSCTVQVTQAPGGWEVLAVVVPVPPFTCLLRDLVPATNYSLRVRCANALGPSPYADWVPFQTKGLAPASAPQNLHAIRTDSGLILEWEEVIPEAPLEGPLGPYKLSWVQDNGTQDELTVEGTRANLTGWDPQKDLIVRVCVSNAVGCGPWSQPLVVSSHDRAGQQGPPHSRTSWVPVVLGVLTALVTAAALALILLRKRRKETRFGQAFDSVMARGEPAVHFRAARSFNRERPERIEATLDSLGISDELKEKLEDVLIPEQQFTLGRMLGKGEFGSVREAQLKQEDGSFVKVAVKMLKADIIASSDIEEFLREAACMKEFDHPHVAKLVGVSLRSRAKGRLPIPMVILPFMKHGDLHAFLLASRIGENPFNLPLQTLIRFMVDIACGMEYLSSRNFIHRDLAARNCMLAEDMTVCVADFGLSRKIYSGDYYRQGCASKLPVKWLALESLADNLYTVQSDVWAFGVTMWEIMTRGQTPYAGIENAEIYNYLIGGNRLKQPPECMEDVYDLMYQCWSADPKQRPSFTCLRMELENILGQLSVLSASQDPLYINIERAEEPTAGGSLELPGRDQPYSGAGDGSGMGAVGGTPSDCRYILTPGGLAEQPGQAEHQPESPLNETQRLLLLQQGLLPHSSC
Particulars: Rse(h); 100 μM. In a few lines: as §1

These results are taken from patent publication US20140072613A1, “Compositions and Methods for Treating Cutaneous Scarring” (priority 2012, published 2014).

Sequence of 266 human kinases (Homo sapiens, UniProt O96013) (O96013 whole entry): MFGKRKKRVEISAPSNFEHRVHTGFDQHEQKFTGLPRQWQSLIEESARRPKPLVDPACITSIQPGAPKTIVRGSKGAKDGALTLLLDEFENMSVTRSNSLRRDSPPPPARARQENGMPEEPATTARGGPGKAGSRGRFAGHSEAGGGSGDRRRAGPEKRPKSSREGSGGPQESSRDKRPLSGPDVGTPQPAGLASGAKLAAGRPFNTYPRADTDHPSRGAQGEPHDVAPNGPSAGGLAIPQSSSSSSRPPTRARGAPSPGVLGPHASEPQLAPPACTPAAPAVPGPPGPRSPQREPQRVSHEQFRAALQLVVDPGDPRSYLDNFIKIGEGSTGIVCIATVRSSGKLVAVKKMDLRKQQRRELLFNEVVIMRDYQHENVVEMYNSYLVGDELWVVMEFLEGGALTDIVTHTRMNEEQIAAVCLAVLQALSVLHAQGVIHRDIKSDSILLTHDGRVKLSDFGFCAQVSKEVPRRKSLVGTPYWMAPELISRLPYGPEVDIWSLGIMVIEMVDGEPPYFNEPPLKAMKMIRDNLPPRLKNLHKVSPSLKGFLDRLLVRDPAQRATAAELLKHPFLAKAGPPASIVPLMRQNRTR
Sequence of 266 human kinases (Homo sapiens, UniProt O96017, I157T) (O96017 whole entry I157T): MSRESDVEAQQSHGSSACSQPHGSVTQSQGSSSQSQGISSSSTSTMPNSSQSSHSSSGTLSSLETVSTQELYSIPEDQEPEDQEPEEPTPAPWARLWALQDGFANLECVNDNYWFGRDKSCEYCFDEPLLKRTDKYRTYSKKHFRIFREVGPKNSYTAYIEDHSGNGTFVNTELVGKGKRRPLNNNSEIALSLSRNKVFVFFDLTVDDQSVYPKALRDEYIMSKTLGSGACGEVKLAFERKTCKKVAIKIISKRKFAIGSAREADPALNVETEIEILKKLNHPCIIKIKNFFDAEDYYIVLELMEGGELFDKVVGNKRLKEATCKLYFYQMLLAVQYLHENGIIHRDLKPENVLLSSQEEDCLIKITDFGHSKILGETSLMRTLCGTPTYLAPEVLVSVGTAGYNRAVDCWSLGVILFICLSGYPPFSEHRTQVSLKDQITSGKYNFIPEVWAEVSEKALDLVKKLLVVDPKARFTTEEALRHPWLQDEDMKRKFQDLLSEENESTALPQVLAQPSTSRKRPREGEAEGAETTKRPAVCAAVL
Sequence of 266 human kinases (Homo sapiens, UniProt P49841) (P49841 whole entry): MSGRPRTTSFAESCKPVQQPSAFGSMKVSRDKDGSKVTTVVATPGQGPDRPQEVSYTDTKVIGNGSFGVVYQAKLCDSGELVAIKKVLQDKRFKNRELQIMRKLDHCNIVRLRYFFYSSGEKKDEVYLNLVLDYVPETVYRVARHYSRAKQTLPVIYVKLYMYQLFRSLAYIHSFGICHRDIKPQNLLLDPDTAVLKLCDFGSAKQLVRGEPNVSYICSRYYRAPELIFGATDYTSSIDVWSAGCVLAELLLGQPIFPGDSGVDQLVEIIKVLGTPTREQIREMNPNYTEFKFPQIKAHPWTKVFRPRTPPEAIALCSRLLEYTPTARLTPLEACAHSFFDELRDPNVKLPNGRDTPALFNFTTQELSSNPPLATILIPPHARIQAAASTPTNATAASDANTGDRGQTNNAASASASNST
Sequence of 266 human kinases (Homo sapiens, UniProt Q15375) (Q15375 28-998): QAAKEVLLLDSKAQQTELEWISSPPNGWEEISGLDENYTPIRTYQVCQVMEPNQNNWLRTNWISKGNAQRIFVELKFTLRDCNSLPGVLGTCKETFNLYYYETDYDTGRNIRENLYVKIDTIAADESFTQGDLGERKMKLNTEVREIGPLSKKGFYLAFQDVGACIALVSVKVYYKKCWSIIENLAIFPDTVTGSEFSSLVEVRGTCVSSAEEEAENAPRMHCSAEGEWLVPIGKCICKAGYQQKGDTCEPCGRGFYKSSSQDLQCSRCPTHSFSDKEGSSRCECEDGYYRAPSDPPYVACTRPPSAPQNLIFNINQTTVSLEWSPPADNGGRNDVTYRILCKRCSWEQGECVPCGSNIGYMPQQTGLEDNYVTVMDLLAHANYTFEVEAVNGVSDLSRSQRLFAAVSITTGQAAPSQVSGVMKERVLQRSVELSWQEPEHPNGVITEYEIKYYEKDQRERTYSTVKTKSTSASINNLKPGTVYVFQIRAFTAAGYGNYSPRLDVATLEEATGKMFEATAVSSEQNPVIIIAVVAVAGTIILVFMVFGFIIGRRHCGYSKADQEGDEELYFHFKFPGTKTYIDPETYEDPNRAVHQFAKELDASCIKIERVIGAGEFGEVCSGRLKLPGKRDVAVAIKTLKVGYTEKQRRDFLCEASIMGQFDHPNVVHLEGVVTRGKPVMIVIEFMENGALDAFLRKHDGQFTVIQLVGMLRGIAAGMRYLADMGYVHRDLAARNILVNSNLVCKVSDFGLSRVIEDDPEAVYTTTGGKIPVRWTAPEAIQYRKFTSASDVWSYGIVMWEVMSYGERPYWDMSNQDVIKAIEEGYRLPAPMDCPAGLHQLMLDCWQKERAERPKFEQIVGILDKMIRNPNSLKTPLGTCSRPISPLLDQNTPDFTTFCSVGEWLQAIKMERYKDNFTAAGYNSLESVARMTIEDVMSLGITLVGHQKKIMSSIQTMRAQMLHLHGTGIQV

Turning to “HRRIKAWLKKIKALARQLGVAA (mammal) [MMI-0500]”, the “% activity” value in test [1] is 15%; in test [2] it was 189%; in test [3], 6%; in test [4] it was 3%; in test [5], 86%; in test [6], 238%. Moreover, the “% activity” value in test [7] is recorded as 63%.

As for “YARAAARQARAKALNRQLGVA (mammal) [MMI-0200]”, the “% activity” value in test [1] was found to be 93%; in test [2], 220%; in test [3] it was 101%; in test [4], 85%; in test [5] it was 98%; in test [6], 132%. The “% activity” value in test [7] came to 88%.
